Biological target: the molecule itself
Test: SEC-MALS

B1: cerato-platanin-like protein 1 (Cpl1) from Ustilago maydis, tag-free recombinant protein (natural protein, UniProt A0A0D1E4Q7 22-240, looked up)
chain: AVDITFTSGKFNRRDDSTVVKQKNPEFGMNLANQYIIRKGAGLPPAKDVKETYPECKWRHYAGSFGWLDDYNVQCYLSPSYKFHAHSIAKAFKAEPSTKAGACFDTANTDQFPEGVPKYSIGVPYLYMNNLYDRRCKVRAMVKIPKTDEHEEKWVQAWVIDHNLGNWDKDGKENDAYPKDGVLIDTNMYEQFFDKNKKVPDYSKTVPVEWFFLDINTVG
  stoichiometry N: 2

— article doi:10.1101/2022.07.21.500954 (bioRxiv, 2022)
